Patent US20210388097A1 (SORRENTO THERAPEUTICS, published 2021)

B3: Mutant-2 human BCMA protein-mouse Fc (Fc fusion)
chain: MLQMAGQCSQNEYFDSLLHACIPCQLRCSSNPPGTCQRYCNASVTNSVKGTNAGLGGLVDYKDDDDKTHTCPPCKCPAPNLLGGPSVFIFPPKIKDVLMISLSPIVTCVVVDVSEDDPDVQISWFVNNVEVHTAQTQTHREDYNSTLRVVSALPIQHQDWMSGKEFKCKVNNKDLPAPIERTISKPKGSVRAPQVYVLPPPEEEMTKKQVTLTCMVTDFMPEDIYVEWTNNGKTELNYKNTEPVLDSDGSYFMYSKLRVEKKNWVERNSYSCSVVHEGLHNHHTTKSFSRTPGK
notes: also called mutant-2 human BCMA-mouse Fc (del32-35G); mutant-2 BCMA protein

Key:
[1] = molecular target: T1, his-tagged mouse BCMA protein (ACROBiosystems, catalog # BCA-M52H3) (mouse, UniProt O88472 1-49); test: ELISA, his-tagged BCMA on Ni-NTA plate at 2 µg/mL, anti-human Fc HRP
T1 construct: Bought protein; not shown: his tag
T1 chain (looked up): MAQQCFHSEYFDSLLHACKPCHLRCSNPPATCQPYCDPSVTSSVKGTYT
Experimental: Cross-reactivity of the anti-BCMA antibodies with his-tagged BCMA protein from human, cynomolgus or mouse, were analyzed by ELISA assay. The Ni-NTA plate was coated with his-tagged BCMA proteins (listed in Example 2 above) at 2 μg/mL, then reacted with an anti-BCMA antibody at 20 μg/mL, and reacted with anti-human Fc HRP (KPL Scientific, catalog #5220-0279) at 1:2500 dilution. […] Each set includes 5 test antigens or buffer, from left to right: negative control antigen, his-tagged mouse BCMA protein, his-tagged cynomolgus BCMA protein, his-tagged human BCMA protein, and Dulbecco's Phosphate-Buffered Saline.

[2] = molecular target: T2, his-tagged human BCMA protein (ACROBiosystems, catalog # BCA-H522y-100 ug) (human, UniProt Q02223 1-54); test: ELISA, his-tagged BCMA on Ni-NTA plate at 2 µg/mL, antibody at 20 µg/mL
T2 construct: limits of the bought construct are not otherwise stated; also called recombinant his-tagged human BCMA; not shown: his tag of the bought protein
T2 sequence: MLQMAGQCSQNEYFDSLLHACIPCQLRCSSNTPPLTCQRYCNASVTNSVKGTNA

[3] = molecular target: T3, human TACI/TNFRSF13B (CD267) His-tag, from Sino Biological (human, UniProt O14836 1-166, limits assumed); test: bio-layer interferometry, antibody coupled to AR2G sensor, TACI in solution
T3 construct: Bought protein; not shown: His-tag
T3 sequence (looked up): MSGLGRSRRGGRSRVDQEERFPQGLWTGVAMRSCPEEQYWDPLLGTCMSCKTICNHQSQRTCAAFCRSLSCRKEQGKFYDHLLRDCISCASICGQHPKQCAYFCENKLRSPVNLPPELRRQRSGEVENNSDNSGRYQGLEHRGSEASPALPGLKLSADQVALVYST
Experimental: (§1) Bio-layer interferometry was used to measure cross-binding between (1) two different anti-BCMA antibodies (BCA7-2C5 or BB C11D5) or a control isotype, and (2) various human antigens including TACI and BAFFR.
(§2) Immobilization of antibody was achieved through standard EDC-catalyzed amide bond formation to create a covalent bond between a reactive amine on the protein and the carboxy-terminated biosensor surface. Briefly, AR2G sensors (OctetRED96e from ForteBio) were activated by EDC-NHS for 6 minutes, then 5 ug/ml antibodies were loaded (BCA7-2C5 antibody, Bluebird C11D5 chimeric antibody, or a human IgG isotype antibody) in 10 mM acetate buffer pH 5.0 for 6 minutes, followed by quenching for 6 minutes with 1M ethanolamine pH 8.5. The 3 minutes baseline step removed any unbound antibody from the biosensor, followed by 1.5 minutes each for association of three analyte proteins TACI (human TACI/TNFRSF13B (CD267) His-tag, from Sino Biological, 1 ug/mL in PBS), BAFFR (human BAFFR/TNFRSF13C (CD268) Fc tag) from Sino Biological, 2 ug/mL in PBS), and human BCMA protein (in-house made with mouse Fc, 2 ug/mL in PBS).

[4] = molecular target: T4, human BAFFR/TNFRSF13C (CD268) Fc tag, from Sino Biological (human, UniProt Q96RJ3 1-71, limits assumed); test: bio-layer interferometry, antibody coupled to AR2G sensor, BAFFR in solution
T4 construct: Bought protein; not shown: Fc tag
T4 sequence (looked up): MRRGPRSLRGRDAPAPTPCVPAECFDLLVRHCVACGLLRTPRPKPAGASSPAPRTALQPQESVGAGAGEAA
Experimental: as §1, §2

[5] = molecular target: T5, Wild type human BCMA protein-mouse Fc (human); test: bio-layer interferometry, antibody (100 nM) loaded on AR2G sensor, BCMA-mouse Fc in solution
T5 construct: also called wild type human BCMA-mouse Fc; wild type BCMA protein
T5 chain: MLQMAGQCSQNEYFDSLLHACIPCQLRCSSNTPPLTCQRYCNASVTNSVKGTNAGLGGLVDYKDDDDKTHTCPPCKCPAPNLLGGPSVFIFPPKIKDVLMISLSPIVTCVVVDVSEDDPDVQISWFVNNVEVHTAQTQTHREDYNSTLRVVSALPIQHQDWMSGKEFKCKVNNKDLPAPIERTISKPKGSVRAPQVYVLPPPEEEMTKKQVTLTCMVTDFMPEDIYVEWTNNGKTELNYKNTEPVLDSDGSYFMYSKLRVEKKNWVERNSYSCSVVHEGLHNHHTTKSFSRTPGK
Experimental: (§3) The results of the protein-protein binding assays described in Example 8 were used to design an epitope mapping assay using bio-layer interferometry. Various anti-BCMA antibodies (2C5, 2E1, 4C9, 6G8, Bluebird C11D5, GSK J6M0, or isotype control) (100 nM) were loaded onto AR2G sensors and reacted with buffer or one of three types of human BCMA proteins including: including: wild type human BCMA-mouse Fc (SEQ ID NO:5), mutant-1 human BCMA-mouse Fc (double mutation 17G-18G; SEQ ID NO:6), or mutant-2 human BCMA-mouse Fc (mutation del32-35G; SEQ ID NO:7).

[6] = molecular target: T6, Mutant-1 human BCMA protein-mouse Fc (human); test: as above
T6 construct: also called mutant-1 human BCMA-mouse Fc (17G-18G); mutant-1 BCMA protein
T6 chain: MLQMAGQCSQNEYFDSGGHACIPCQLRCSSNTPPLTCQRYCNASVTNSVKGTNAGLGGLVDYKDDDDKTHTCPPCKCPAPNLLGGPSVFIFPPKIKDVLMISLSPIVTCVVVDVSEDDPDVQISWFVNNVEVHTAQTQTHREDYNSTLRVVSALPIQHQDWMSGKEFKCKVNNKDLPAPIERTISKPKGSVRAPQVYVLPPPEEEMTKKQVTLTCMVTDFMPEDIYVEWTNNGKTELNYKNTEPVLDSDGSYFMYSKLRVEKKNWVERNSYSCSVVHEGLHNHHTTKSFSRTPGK
Experimental: as §3

[7] = molecular target: B3; test: as above
Experimental: as §3

BCMA on MM1R cells = molecular target: T7, BCMA on MM1R cells (human, UniProt Q02223); test: flow cytometry on MM1R cells, 5x serial dilution, FITC goat anti-human IgG F(ab')2, GeoMean BL1-H
T7 construct: full length, on the surface of MM1R multiple myeloma cells; also called MM1R multiple myeloma cell line
T7 sequence (receptor, looked up): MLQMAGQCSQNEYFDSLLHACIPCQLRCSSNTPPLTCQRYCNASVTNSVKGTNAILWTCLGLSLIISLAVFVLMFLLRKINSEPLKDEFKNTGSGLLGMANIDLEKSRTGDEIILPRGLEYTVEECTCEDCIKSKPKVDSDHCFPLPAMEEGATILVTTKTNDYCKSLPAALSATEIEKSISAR
Text: Flow cytometry was used to test antibody binding to multiple myeloma cell line MM1R, using various anti-BCMA antibodies (5× serial dilution) and 80,000 cells per well. The secondary antibody was FITC AffiniPure FAB2 fragment goat anti-human IgG (H+L) (from Jackson Immuno Research). […] A BL-1 detector (IntelliCyt iQue Screener Plus) which detects at 530 nm was used. The geometric mean is reported.

[8] = molecular target: T2, his-tagged human BCMA protein …; test: SPR (Biacore T200, 25 C), antibody captured on anti-human Fc, his-tagged human BCMA as analyte, 1:1 binding model
Experimental: Binding kinetics of anti-BCMA antibodies with his-tagged human BCMA protein (ACROBiosystems, catalog # BCA-H522y-100 ug, UniProt Q02223-1, SEQ ID NO:92) was measured using surface plasmon resonance (SPR). Kinetic interactions between the antibodies and his-tagged BCMA proteins were measured at 25° C. using Biacore T200 surface plasmon resonance (GE Healthcare). Anti-human fragment crystallizable region (Fc region) antibody was immobilized on a CM5 sensor chip to approximately 8000 resonance units (RU) using standard N-hydroxysuccinimide/N-Ethyl-N′-(3-dimethylaminopropyl) carbodiimide hydrochloride (NHS/EDC) coupling methodology. The anti-BCMA antibody (2 μg/mL) was captured for 60 seconds at a flow rate of 10 μL/minute. The his-tagged BCMA protein was run at six different dilutions of 3.12, 6.25, 12.5, 25, 50, 100 and 200 nM, in a running buffer of 0.01 M HEPES pH 7.4, 0.15 M NaCl, 3 mM EDTA, 0.05% v/v Surfactant P20 (HBS-EP+). The 25 nM BCMA protein run was measured two times. All measurements were conducted in HBS-EP+ buffer with a flow rate of 30 μL/minute. A 1:1 (Langmuir) binding model was used to fit the data. The SPR sensorgrams of anti-BCMA antibodies BCA7, GSK J6M0, BC4C9 and BC5C4 are shown in FIGS. 1, 2, 3 and 4, respectively, and their corresponding binding kinetics are listed in Table 3.

[9] = molecular target: T8, human APRIL protein (R&D Systems, catalog #5860-AP-010/CF) (human, UniProt O75888 105-250, limits assumed); test: bio-layer interferometry, APRIL on AR2G sensor, BCMA-mouse Fc at 2.5 µg/mL
T8 construct: Bought protein; also called human APRIL protein from R&D Systems; TNF13
T8 sequence (looked up): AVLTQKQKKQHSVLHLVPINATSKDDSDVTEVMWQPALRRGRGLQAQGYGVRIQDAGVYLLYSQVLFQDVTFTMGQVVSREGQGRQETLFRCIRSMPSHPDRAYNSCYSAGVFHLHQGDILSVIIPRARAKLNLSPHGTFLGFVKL
Experimental: Bio-layer interferometry was also used to measure binding between APRIL protein, and wild type or mutant BCMA proteins. Human APRIL protein (R&D Systems, catalog #5860-AP-010/CF) was loaded onto an Ar2G sensor (OctetRET96e) and reacted with 2.5 μg/mL of one of three types of human BCMA proteins including: wild type human BCMA-mouse Fc (SEQ ID NO:5), mutant-1 human BCMA-mouse Fc (17G-18G; SEQ ID NO:6), or mutant-2 human BCMA-mouse Fc (de132-35G; SEQ ID NO:7).

B1: Bluebird C11D5 antibody (BB anti-BCMA Ab) (antibody, V domains shown)
VH: QIQLVQSGPELKKPGETVKISCKASGYTFTDYSINWVKRAPGKGLKWMGWINTETREPAYAYDFRGRFAFSLETSASTAYLQINNLKYEDTATYFCALDYSYAMDYWGQGTTLTVSS
VL: DIVLTQSPASLAMSLGKRATISCRASESVSVIGAHLIHWYQQKPGQPPKLLIYLASNLETGVPARFSGSGSGTDFTLTIDPVEEDDVAIYSCLQSRIFPRTFGGGTKLEIK
notes: Comparator anti-BCMA antibody; also called BB C11D5; Bluebird antibody
**Q.** What does the source list for B1?
**A.** binding result [1]: no binding (tested: 20 µg/mL); binding result [2]: binds; binding result [3]: no binding (tested: 1 ug/mL); binding result [4]: no binding (tested: 2 ug/mL); binding result [5]: binds; binding result [6]: binds; binding result [7]: binds; binding result (BCMA on MM1R cells): binds

B2: GSK J6M0 antibody (GSK anti-BCMA Ab) (antibody, V domains shown)
VH: QVQLVQSGAEVKKPGSSVKVSCKASGGTFSNYWMHWVRQAPGQGLEWMGATYRGHSDTYYNQKFKGRVTITADKSTSTAYMELSSLRSEDTAVYYCARGAIYDGYDVLDNWGQGTLVTVSS
VL: DIQMTQSPSSLSASVGDRVTITCSASQDISNYLNWYQQKPGKAPKLLIYYTSNLHSGVPSRFSGSGSGTDFTLTISSLQPEDFATYYCQQYRKLPWTFGQGTKLEIK
notes: Comparator anti-BCMA antibody; captured by anti-human Fc in SPR, so it carries a human Fc; also called GSK antibody
**Q.** What does the source list for B2?
**A.** binding result [1]: no binding (tested: 20 µg/mL); binding result [5]: binds; binding result [6]: binds; Kd [8]: 2.52 nM; koff [8]: 0.000496 s⁻¹; kon [8]: 197000 M⁻¹ s⁻¹

**Q.** Does B3 bind [9]?
**A.** Result: binds
